# Experimental data: patent US20180051082A1 (ANAPTYSBIO, published 2018)
# Legend:
# [1] = biological target: T1, monomeric soluble human PD1-Avi-His (human, UniProt Q15116 25-170); test: SPR (BIACORE T200), antibody captured on anti-human IgG, monomeric PD1-Avi-His flowed, 1:1 fit
# T1 construct: extracellular domain; not shown: Avi tag and His tag at the C-terminus
# Description: SPR analyses were carried out using a BIACORE™ T200 instrument, and kinetic constants were determined using the BIACORE™ T200 evaluation software. Experimental parameters were chosen to ensure that saturation would be reached at the highest antigen concentrations and that Rmax values would be kept under 30 RU. GE anti-Human IgG (Fc-specific, approximately 7,000 RU) was immobilized on a BIACORETM CM5 chip using EDC-activated amine coupling chemistry. Antibodies (0.5 μg/mL, 60 second capture time) were then captured using this surface. Next, monomeric soluble human PD1-Avi-His was flowed over captured antibody (300 second association, 300 second dissociation) using a three-fold serial dilution series from 500 nM to 2 nM. Captured antibody and antigen were removed between each cycle using 3 M MgCl₂ (60 second contact time) in order to ensure a fresh binding surface for each concentration of antigen. The resulting sensorgrams were fit globally using a 1:1 binding model in order to calculate on- and off-rates (kₐ and kd, respectively), as well as affinities (KD).
# [2] = biological target: T1, monomeric soluble human PD1-Avi-His; test: KINEXA 3000 solution-based affinity, PD1-Avi-His titrated against constant antibody
# Description: Solution-based affinity analyses were carried out using a KINEXA™ 3000 assay (Sapidyne Instruments, Boise, Idaho), and results were analyzed using KINEXA™ Pro Software 3.2.6. Experimental parameters were selected to reach a maximum signal with antibody alone between 0.8 and 1.2 V, while limiting nonspecific binding signal with buffer alone to less than 10% of the maximum signal. Azlactone beads (50 mg) were coated with antigen by diluting in a solution of PD-1-Avi-His (50 μg/mL in 1 mL) in 50 mM Na₂CO₃. The solution was rotated at room temperature for 2 hours, and beads were pelleted in a picofuge and washed twice with blocking solution (10 mg/mL BSA, 1 M Tris-HCl, pH 8.0). Beads were resuspended in blocking solution (1 mL), rotated at room temperature for 1 hour, and diluted in 25 volumes PBS/0.02% NaN3. […] All samples were diluted in PBS, 0.2% NaN₃, 1 mg/mL BSA and allowed to equilibrate at room temperature for 30 hours. Additionally, samples containing only antibody and only buffer were tested in order to determine maximum signal and nonspecific binding signal, respectively.
# [3] = biological target: T2, full-length human PD-1 on the cell surface (human, UniProt Q15116 25-288); test: cell-based or functional assay
# [4] = biological target: T2, full-length human PD-1 on the cell …; test: hybridoma screening, flow cytometry on PD-1 CHO-K1 cells (Example 1)
# Description: Hybridoma supernatants from ten 96-well plates were screened for binding to a CHO-K1 cell clone stably transfected with a nucleic acid sequence encoding full length human PD-1 and compared to binding to untransfected CHO-K1 cells. Specifically, hybridoma supernatants were diluted 1:1 with PBS/2% FBS and incubated with an equal volume of PD-1 CHO-K1 cells (2.5×10⁵ cells in PBS, 2% FBS) for 30 minutes at 4° C. Cells were centrifuged, washed once with PBS/1% FBS, and incubated with APC-conjugated goat anti-mouse IgG (H+L) (Southern Biotechnology, Birmingham, Ala.) for 30 minutes at 4° C. […] Mouse IgG levels were quantified by ELISA.
# [5] = biological target: T2, full-length human PD-1 on the cell …; test: binding to PD-1 antigens as in Example 1 (format not restated)
# T2 sequence (Q15116 25-288): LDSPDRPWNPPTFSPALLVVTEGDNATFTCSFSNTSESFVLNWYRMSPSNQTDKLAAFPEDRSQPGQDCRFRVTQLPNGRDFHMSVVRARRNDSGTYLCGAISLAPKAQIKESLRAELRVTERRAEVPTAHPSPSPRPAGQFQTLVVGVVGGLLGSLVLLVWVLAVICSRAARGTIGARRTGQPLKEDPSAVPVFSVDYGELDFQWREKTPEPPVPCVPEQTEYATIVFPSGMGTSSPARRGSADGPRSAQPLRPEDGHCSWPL
# T1 sequence (Q15116 25-170): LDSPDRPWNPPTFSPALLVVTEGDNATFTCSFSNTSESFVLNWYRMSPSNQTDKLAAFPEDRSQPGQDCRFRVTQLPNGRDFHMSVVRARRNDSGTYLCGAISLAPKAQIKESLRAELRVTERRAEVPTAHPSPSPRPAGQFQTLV
Binder,Kd [1],koff [1],kon [1],also measured
"APE2058 (antibody, human IgG1, V domains shown, expressed from HEK 293 cells as human IgG1; also called anti-PD-1) VH: EVQLLESGGGLVQPGGSLRLSCAASGFTFSSYDMSWVRQAPGKGLEWVSTISGGGSYTYYQDSVKGRFTISRDNSKNTLYLQMNSLRAEDTAVYYCASPYYAMDYWGQGTTVTVSS VL: DIQLTQSPSFLSAYVGDRVTITCKASQDVGTAVAWYQQKPGKAPKLLIYWASTLHTGVPSRFSGSGSGTEFTLTISSLQPEDFATYYCQHYSSYPWTFGQGTKLEIK",2 nM,0.00064 s⁻¹,300000 M⁻¹ s⁻¹,"Kd [2]: 0.2 nM; EC50, multiple human CD4+ T-cell MLR assays [3]: 0.02 µg/mL"
"9A2 (mouse monoclonal antibody) (antibody, V domains shown, Mouse hybridoma antibody) VH: DVKLVESGGGLVKPGGSLKLSCAASGFTFSSYTLSWVRQTPGKRLEWVAVISSGGDYAYYPDSVQGRFTISRDNAKNTLYLQMNSLKSEDTAMYYCSRDHYGTSHFAYWGQGTLVTVSA VL: not shown",–,–,–,binding result [4]: binds
"9A2 mouse:human chimeric antibody (antibody, human IgG1, V domains shown, also called chimeric 9A2) VH: DVKLVESGGGLVKPGGSLKLSCAASGFTFSSYTLSWVRQTPGKRLEWVAVISSGGDYAYYPDSVQGRFTISRDNAKNTLYLQMNSLKSEDTAMYYCSRDHYGTSHFAYWGQGTLVTVSA VL: not shown",–,–,–,binding result [5]: binds
"APE1923 (antibody, human IgG1, V domains shown, expressed from HEK 293 cells as human IgG1) VH: EVQLLESGGGLVQPGGSLRLSCAASGFTFSSYTMSWVRQAPGKGLEWVSVISSGGNSAYYPDSVQGRFTISRDNSKNTLYLQMNSLRAEDTAVYYCAKEHYGTSHFAYWGQGTLVTVSS VL: EIVLTQSPATLSLSPGERATLSCRASESVDNFGISFMSWYQQKPGQAPRLLIYAASNPGSGIPARFSGSGSGTDFTLTISSLEPEDFAVYYCQQSKEVPYTFGQGTKLEIK",9 nM,0.0017 s⁻¹,190000 M⁻¹ s⁻¹,Kd [2]: 1 nM
"APE1924 (antibody, human IgG1, V domains shown, expressed from HEK 293 cells as human IgG1) VH: EVQLLESGGGLVQPGGSLRLSCAASGFTFSSYTMSWVRQAPGKGLEWVSVISSGGNYAYYPDSVQGRFTISRDNSKNTLYLQMNSLRAEDTAVYYCAKEHYGTSHFAYWGQGTLVTVSS VL: EIVLTQSPATLSLSPGERATLSCRASESVDNFGISFMSWYQQKPGQAPRLLIYAASNPGSGIPARFSGSGSGTDFTLTISSLEPEDFAVYYCQQSKEVPYTFGQGTKLEIK",10 nM,0.0018 s⁻¹,180000 M⁻¹ s⁻¹,Kd [2]: ~1 nM
"APE1922 (antibody, human IgG1, V domains shown, expressed from HEK 293 cells as human IgG1) VH: EVQLLESGGGLVQPGGSLRLSCAASGFTFSSYTMSWVRQAPGKGLEWVSVISSGGDSAYYPDSVQGRFTISRDNSKNTLYLQMNSLRAEDTAVYYCAKEHYGTSHFAYWGQGTLVTVSS VL: EIVLTQSPATLSLSPGERATLSCRASESVDNFGISFMSWYQQKPGQAPRLLIYAASNPGSGIPARFSGSGSGTDFTLTISSLEPEDFAVYYCQQSKEVPYTFGQGTKLEIK",15 nM,0.0018 s⁻¹,130000 M⁻¹ s⁻¹,–
"APE1963 (antibody, human IgG1, V domains shown, expressed from HEK 293 cells as human IgG1) VH: EVQLLESGGGLVQPGGSLRLSCAASGFTFSSYTMSWVRQAPGKGLEWVSVISSGGNSAYYPDSVQGRFTISRDNSKNTLYLQMNSLRAEDTAVYYCAKEYYGSSHFAYWGQGTLVTVSS VL: EIVLTQSPATLSLSPGERATLSCRASESVDNFGISFMSWYQQKPGQAPRLLIYAASNPGSGIPARFSGSGSGTDFTLTISSLEPEDFAVYYCQQSKEVPYTFGQGTKLEIK",17 nM,0.001 s⁻¹,58000 M⁻¹ s⁻¹,–
"APE1950 (antibody, human IgG1, V domains shown, expressed from HEK 293 cells as human IgG1) VH: EVQLLESGGGLVQPGGSLRLSCAASGFTFSSYTMSWVRQAPGKGLEWVSVISSGGDSTYYPDSVQGRFTISRDNSKNTLYLQMNSLRAEDTAVYYCAKEHYGTSHFAYWGQGTLVTVSS VL: EIVLTQSPATLSLSPGERATLSCRASESVDNFGISFMSWYQQKPGQAPRLLIYAASNPGSGIPARFSGSGSGTDFTLTISSLEPEDFAVYYCQQSKEVPYTFGQGTKLEIK",17 nM,0.0025 s⁻¹,150000 M⁻¹ s⁻¹,–
"10B11 (mouse monoclonal antibody) (antibody, V domains shown, Mouse hybridoma antibody) VH: DVKLVESGGGLVKPGGSLKVSCAASGFTFSSYTMSWVRQTPEKRLEWVAVISSGGNSTYYPDSVKGRFTISRDNAKNTLYLQMSSLKSEDTAMYYCTREHYGSSHFAYWGQGTLVTVSA VL: not shown",–,–,–,binding result [4]: binds
"10B11 mouse:human chimeric antibody (antibody, human IgG1, V domains shown, also called chimeric 10B11) VH: DVKLVESGGGLVKPGGSLKVSCAASGFTFSSYTMSWVRQTPEKRLEWVAVISSGGNSTYYPDSVKGRFTISRDNAKNTLYLQMSSLKSEDTAMYYCTREHYGSSHFAYWGQGTLVTVSA VL: not shown",–,–,–,binding result [5]: binds
"6E9 (mouse monoclonal antibody) (antibody, V domains shown, Mouse hybridoma antibody) VH: EVMLVESGGGLVKPGGSLKLSCAASGFTFSSYDMSWVRQTPEKRLEWVATISGGGSYTYYQDSVKGRFTISRDNAKNTLYLQMSSLRSEDTAMYYCASPYYAMDYWGQGTSVTVSS VL: DIVMTQSHKFMSTSVGDRVSITCKASQDVGTAVAWYQQKPGQSPKLLIYWASTRHTGVPDRFTGSGSGTDFTLTISNVQSEDLADYFCQHYSSYPWTFGGGTKLEIKR",–,–,–,binding result [4]: binds
"6E9 mouse:human chimeric antibody (antibody, human IgG1, V domains shown, also called chimeric 6E9) VH: EVMLVESGGGLVKPGGSLKLSCAASGFTFSSYDMSWVRQTPEKRLEWVATISGGGSYTYYQDSVKGRFTISRDNAKNTLYLQMSSLRSEDTAMYYCASPYYAMDYWGQGTSVTVSS VL: DIVMTQSHKFMSTSVGDRVSITCKASQDVGTAVAWYQQKPGQSPKLLIYWASTRHTGVPDRFTGSGSGTDFTLTISNVQSEDLADYFCQHYSSYPWTFGGGTKLEIKR",–,–,–,binding result [5]: binds
